US11571459B2, “Methods for treating cancer using PS-targeting antibodies with immuno-oncology agents” (ONCXERNA THERAPEUTICS, INC., priority 2017, dated 2023)
Where two headings read alike, the source gives them in different places.

How the values were obtained:
[1] = tested on: locally advanced or metastatic breast cancer; test: Phase II bavituximab plus paclitaxel and carboplatin in breast cancer; details: with paclitaxel and carboplatin
Excerpt: This Phase II study utilized a Simon 2-stage design. […] The primary objective was to determine the overall response rate (ORR), defined as complete response (CR) plus partial response (PR), CR+PR. Secondary objectives included time to tumor progression, duration of response (DOR or DR), overall survival (OS) and safety.

HCV (genotype 1) = test: Phase II study of bavituximab with ribavirin in chronic HCV (genotype 1); details: for patients with early virological response (EVR): Week 12
[2] = Phase Ib study of bavituximab with gemcitabine, paclitaxel plus carboplatin or docetaxel: PK; type: in vivo, human; details: 3 mg/kg weekly with gemcitabine
[3] = tested on: HER2-negative metastatic breast cancer; test: Bavituximab and paclitaxel in HER2-negative metastatic breast cancer; type: in vivo, human
Excerpt: Manageable infusion-related reactions were the most common AE related to bavituximab.

β2GPI = target: T1, β2GPI (Homo sapiens, UniProt P02749); test: Antibody binding to β2GPI (domain mapping)
T1 sequence (P02749 20-345): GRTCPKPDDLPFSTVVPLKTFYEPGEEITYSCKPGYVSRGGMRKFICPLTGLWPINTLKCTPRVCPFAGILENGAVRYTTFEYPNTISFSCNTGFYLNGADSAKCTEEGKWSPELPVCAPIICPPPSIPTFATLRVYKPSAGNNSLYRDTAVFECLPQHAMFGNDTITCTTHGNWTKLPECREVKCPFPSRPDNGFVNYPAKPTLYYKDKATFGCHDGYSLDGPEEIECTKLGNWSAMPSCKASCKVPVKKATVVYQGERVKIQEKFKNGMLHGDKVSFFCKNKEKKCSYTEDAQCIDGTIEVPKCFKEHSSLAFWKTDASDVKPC
Excerpt: In summary, it was shown that the 3G4 antibody binds to β2GPI at domain II and that the lipid binding region of β2GPI domain V is required for co-binding of 3G4 (and ch3G4) and β2GPI to PS exposed on cells. […] Accordingly, antibody and β2GPI co-bind to PS exposed on the outer surfaces of membranes, such as occurs on activated endothelial cells, tumor vascular endothelial cells and tumor cells, as well as on virally infected cells.

[4] = tested on: previously treated non-squamous NSCLC
Experimental: The primary objective of this study was to compare the ORR (CR+PR) among the treatment arms. Secondary objectives included comparing PFS, DR, OS, safety and PK.
Additional blood draws were performed for these patients during Cycles 1 and 2 at specified time points.
Samples from the NSCLC Phase II trial of Example IX (PPHM 0902) were tested using the functional β2GPI assay of Example XII.

[5] = in vivo
Experimental: (§1) Samples were collected from patients in the 0.1 and 0.3 mg/kg dose cohorts before the study, on days 0, 1, 2, 4, 7, 10, 14, and every 7 days from days 21 to 70. Samples were collected from patients in the 1 and 3 mg/kg dose cohorts before the study, on days 0, 1, 2, 4, 7, 14, 21, 22, 23, 25, and every 7 days from days 28 to 56.

HCV and HIV = test: Phase Ib repeat-dose study in patients co-infected with chronic HCV and HIV; type: in vivo, human
Experimental: The primary objectives were to determine the safety, tolerability, PK profile, viral kinetics, MTD and/or MED. The study involved 16 scheduled visits over approximately 16 weeks. […] Dose escalation proceeded after all patients in the cohort had completed the first 4 weeks of dosing with no thrombotic events classified as serious adverse events (SAEs).
The median baseline HCV viral load was 6.76 log10 and the median baseline for HIV was 3.99 log10. Plasma viral loads of HCV and HIV were measured at specific time points during the study.

[6] = Phase I dose escalation study of bavituximab monotherapy in refractory advanced solid tumors: PK, safety; details: for AUCinf / Cmax / t1/2 / CL: Mean (CV %)
Experimental: as §1

tumors = test: Syngeneic and xenogeneic tumor models; type: in vivo, mice; details: wide range of studies
Experimental: The 3G4 antibody was purified to apparent homogeneity from the supernatant of the cultured hybridoma using a standard Protein A procedure.
In early studies in mice, it was calculated that molar ratios of β2GPI to antibody of between 0.12 and 0.25 were effective for anti-tumor activity, thus showing that high levels of β2GPI are not necessary for anti-tumor activity.

[7] = 3 mg/kg weekly with paclitaxel, 14 patients
[8] = ITT, all with docetaxel, Bavituximab arm 3 mg/kg

## bavituximab
[1]
  median PFS: 6.9 months
  median duration of response (DOR): 3.7 months
[1]; 46 patients
  CR: 10.9%
  Grade 3 anemia: 10.9%
  Grade 3 leukopenia: 23.9%
  Grade 3 neutropenia: 19.6%
  Grade 4 neutropenia: 26.1%
  PR: 63.0%
  objective response per RECIST: 73.9%
[1]; at study closure
  median OS: 23.2 months
HCV (genotype 1); 0.3 mg/kg weekly with ribavirin
  patients with early virological response (EVR): 18%
HCV (genotype 1); 3 mg/kg weekly with ribavirin
  patients with early virological response (EVR): 9%
HCV (genotype 1); all with ribavirin
  safety profile / patients reporting AEs: more favorable safety profile
HCV (genotype 1); plus ribavirin, 12 weeks
  viral reduction: gradual viral reduction over 12 weeks was seen in some patients
[2]
  accumulation (Cmax and AUC): no accumulation of bavituximab following multiple-dose administration
[3]; 3 mg/kg weekly with paclitaxel
  median progression-free survival (PFS): 7.3 months
[3]; [7]
  overall response rate (ORR): 85%
  patients having a complete response: 2 patients
[3]; in combination with paclitaxel
  tolerability: well tolerated
[3]; with paclitaxel
  most common adverse events: Bone pain, fatigue, headache and neutropenia
  thrombogenicity: no evidence for increased thrombogenicity
β2GPI
  β2GPI domain bound: bind to domain II of β2GPI
[4]; 3 mg/kg
  ORR greater than combined group by: approximately 50%
  median OS longer than combined group by: approximately 60%
[4]; [8]
  Deaths: 53.7%
  Number of Deaths: 22
[4]; ITT, central review, all with docetaxel, Bavituximab arm 3 mg/kg
  Overall Response Rate (CR + PR): 17.1%
[4]; PK sub-study, 6 patients per arm, cycles 1 and 2
  pharmacokinetic drug-drug interaction: No clinically relevant pharmacokinetic drug-drug interaction was observed
[4]; functional β2GPI less than 200 μg/mL, bavituximab 3 mg/kg with docetaxel
  mOS: 9.4 months
[4]; functional β2GPI ≥200 μg/mL, bavituximab 3 mg/kg, all with docetaxel
  mOS: 16.8 months
[5]
  accumulation following multiple-dose administration: did not exhibit appreciable accumulation or time-dependent PK differences
  tolerability: well tolerated at doses ranging up to 3 mg/kg weekly
HCV and HIV; 0.3 to 6 mg/kg once weekly for 8 weeks
  accumulation / time-dependent PK differences: did not exhibit time-dependent PK differences or accumulation
HCV and HIV; several patients in each treatment group, all dose levels
  maximum reduction in HCV and/or HIV viral load from baseline: ≥ 0.5 log10
[6]; 0.1 to 3 mg/kg
  PK linearity: linear single-dose (day 0) and multiple-dose (days 21 or 42) PK characteristics
[6]; 0.1 to 3 mg/kg weekly
  maximum tolerated dose: No maximum tolerated dose was reached
[6]; Day 0, 0.1 mg/kg, N=8
  AUCinf: 113 (50.1) d μg/mL
  Cmax: 2.11 (27.3) μg/mL
  t1/2: 43.9 (48.5) h
[6]; Day 0, 0.3 mg/kg, N=6
  AUCinf: 241 (39.8) d μg/mL
  Cmax: 5.13 (42.4) μg/mL
  t1/2: 39.8 (34.1) h
[6]; Day 0, 1.0 mg/kg, N=6
  AUCinf: 966 (30.0) d μg/mL
  Cmax: 16.6 (30.9) μg/mL
  t1/2: 40.3 (20.2) h
[6]; Day 0, 3.0 mg/kg, N=6
  AUCinf: 3,017 (50.3) d μg/mL
  Cmax: 56.4 µg/mL
  t1/2: 37.2 (34.5) h
[6]; Day 21, 1.0 mg/kg weekly, N=6
  AUCinf: 1,053 (38.0) d μg/mL
  CL: 1.12 (52.1) mL/kg/d
  Cmax: 18.7 (31.8) μg/mL
  t1/2: 46.8 (38.4) h
[6]; Day 21, 3.0 mg/kg weekly, N=4
  AUCinf: 2,672 (63.4) d μg/mL
  CL: 1.51 (61.4) mL/kg/d
  Cmax: 59.6 (27.6) μg/mL
  t1/2: 46.0 (44.4) h
[6]; dose of 1 mg/kg
  time concentration remained above 2 μg/mL: 6 days
[6]; dose of 3 mg/kg
  time concentration remained above 2 μg/mL: 7 days
tumors
  in vivo localization and effects: localize to tumor vascular endothelium and to exert anti-tumor effects and anti-viral effects
